Results published in patent US20140248254.

Molecular target: G-Actin protein

B1: Mus AChE protein (AChE 1-548AA, mouse) (protein)
chain: EGREDPQLLVRVRGGQLRGIRLKAPGGPVSAFLGIPFAEPPVGSRRFMPPEPKRPWSGVLDATTFQNVCYQYVDTLYPGFEGTEMWNPNRELSEDCLYLNVWTPYPRPASPTPVLIWIYGGGFYSGAASLDVYDGRFLAQVEGAVLVSMNYRVGTFGFLALPGSREAPGNVGLLDQRLALQWVQENIAAFGGDPMSVTLFGESAGAASVGMHILSLPSRSLFHRAVLQSGTPNGPWATVSAGEARRRATLLARLVGCPPGGAGGNDTELIACLRTRPAQDLVDHEWHVLPQESIFRFSFVPVVDGDFLSDTPEALINTGDFQDLQVLVGVVKDEGSYFLVYGVPGFSKDNESLISRAQFLAGVRIGVPQASDLAAEAVVLHYTDWLHPEDPTHLRDAMSAVVGDHNVVCPVAQLAGRLAAQGARVYAYIFEHRASTLTWPLWMGVPHGYEIEFIFGLPLDPSLNYTTEERIFAQRLMKYWTNFARTGDPNDPRDSKSPQWPPYTTAAQQYVSLNLKP
  cleaving of plasmid DNA by AChE (agarose gel) after pre-incubation with G-Actin: it almost had no effect on cleaving ability of AChE on DNA
